This passage reports Kd results from PMC7005798 (2020).

The experiment has as its target C3b (human, UniProt P01024 23-667; P01024 749-1663). Description: SPR.

Chain of C3b (P01024 23-667, chain 1 of 2): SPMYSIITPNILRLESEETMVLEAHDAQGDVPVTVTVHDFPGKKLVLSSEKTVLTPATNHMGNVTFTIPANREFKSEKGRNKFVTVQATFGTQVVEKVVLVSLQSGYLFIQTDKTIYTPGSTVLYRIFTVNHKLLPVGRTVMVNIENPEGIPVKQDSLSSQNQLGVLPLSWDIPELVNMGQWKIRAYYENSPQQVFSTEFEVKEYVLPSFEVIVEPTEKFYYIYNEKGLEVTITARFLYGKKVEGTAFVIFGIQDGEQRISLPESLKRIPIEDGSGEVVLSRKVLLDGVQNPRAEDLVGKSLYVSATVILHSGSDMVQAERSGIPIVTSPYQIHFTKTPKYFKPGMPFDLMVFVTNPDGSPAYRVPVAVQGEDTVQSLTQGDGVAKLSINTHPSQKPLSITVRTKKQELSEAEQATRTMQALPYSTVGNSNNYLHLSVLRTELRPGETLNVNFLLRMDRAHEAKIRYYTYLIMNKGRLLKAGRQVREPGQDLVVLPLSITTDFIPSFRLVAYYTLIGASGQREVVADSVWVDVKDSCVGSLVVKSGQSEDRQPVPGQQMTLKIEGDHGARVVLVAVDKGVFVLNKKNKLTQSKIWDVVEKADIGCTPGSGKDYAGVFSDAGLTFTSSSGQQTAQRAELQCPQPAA
Chain of C3b (P01024 749-1663, chain 2 of 2): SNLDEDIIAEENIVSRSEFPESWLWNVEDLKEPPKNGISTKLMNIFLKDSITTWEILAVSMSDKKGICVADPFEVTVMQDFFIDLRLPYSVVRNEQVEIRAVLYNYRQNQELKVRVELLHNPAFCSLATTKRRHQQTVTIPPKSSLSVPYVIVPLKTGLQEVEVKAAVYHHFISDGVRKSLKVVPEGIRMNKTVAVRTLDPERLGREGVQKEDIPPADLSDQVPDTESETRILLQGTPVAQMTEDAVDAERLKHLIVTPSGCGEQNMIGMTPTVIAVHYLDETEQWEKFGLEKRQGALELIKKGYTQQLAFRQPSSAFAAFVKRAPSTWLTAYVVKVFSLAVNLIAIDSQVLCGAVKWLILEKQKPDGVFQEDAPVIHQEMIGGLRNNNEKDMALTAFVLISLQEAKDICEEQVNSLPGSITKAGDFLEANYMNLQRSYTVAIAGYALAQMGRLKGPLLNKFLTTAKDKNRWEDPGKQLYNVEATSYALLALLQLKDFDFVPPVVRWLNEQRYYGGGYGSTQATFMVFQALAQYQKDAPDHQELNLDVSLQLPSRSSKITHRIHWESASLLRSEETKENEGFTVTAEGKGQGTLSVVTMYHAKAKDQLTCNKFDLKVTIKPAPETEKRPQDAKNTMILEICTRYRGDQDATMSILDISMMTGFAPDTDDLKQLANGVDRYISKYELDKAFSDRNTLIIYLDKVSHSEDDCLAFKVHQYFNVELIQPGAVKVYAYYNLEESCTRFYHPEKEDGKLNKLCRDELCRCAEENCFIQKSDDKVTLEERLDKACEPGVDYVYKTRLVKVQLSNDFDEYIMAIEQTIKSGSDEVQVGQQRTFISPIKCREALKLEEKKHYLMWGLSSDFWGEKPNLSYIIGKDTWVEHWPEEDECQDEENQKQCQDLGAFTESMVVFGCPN

B1: Recombinant Factor H-Related Protein 4 (FHR-4), FHR-4B variant (natural protein)
chain: EVKPCDFPEIQHGGLYYKSLRRLYFPAAAGQSYSYYCDQNFVTPSGSYWDYIHCTQDGWSPTVPCLRTCSKSDIEIENGFISESSSIYILNKEIQYKCKPGYATADGNSSGSITCLQNGWSAQPICIKFCDMPVFENSRAKSNGMRFKLHDTLDYECYDGYEISYGNTTGSIVCGEDGWSHFPTCYNSSEKCGPPPPISNGDTTSFLLKVYVPQSRVEYQCQSYYELQGSNYVTCSNGEWSEPPRCIHPCIITEENMNKNNIQLKGKSDIKYYAKTGDTIEFMCKLGYNANTSVLSFQAVCREGIVEYPRCE
B1: the Kd came out at 1100 nM. In other words, the single-digit micromolar range.

By Kd is commonly meant a measure of binding affinity in units of concentration. A lower Kd goes with a tighter complex.
